The target in this series is T1, TtHisRS (histidyl-tRNA synthetase) (Thermus thermophilus HB27 (ATCC …, UniProt P62374 1-421)).
T1 sequence: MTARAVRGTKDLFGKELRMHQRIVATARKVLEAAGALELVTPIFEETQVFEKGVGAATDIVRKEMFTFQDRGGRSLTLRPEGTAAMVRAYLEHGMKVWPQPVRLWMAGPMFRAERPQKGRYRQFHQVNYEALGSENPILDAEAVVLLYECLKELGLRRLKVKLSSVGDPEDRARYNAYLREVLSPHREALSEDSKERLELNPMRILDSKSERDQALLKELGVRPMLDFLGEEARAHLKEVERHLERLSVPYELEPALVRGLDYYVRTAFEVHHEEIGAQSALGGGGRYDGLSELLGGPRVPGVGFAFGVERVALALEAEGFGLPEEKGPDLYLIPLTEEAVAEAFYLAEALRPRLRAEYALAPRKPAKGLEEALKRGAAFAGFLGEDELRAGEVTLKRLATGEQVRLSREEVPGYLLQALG
Nature of the series: X-ray crystallography.

B1: tRNAHis(GUG) transcript (TttRNAHis) (structured_RNA)
RNA: GGUGAGCGUAGCUCAGCUGGUAGACCACCGGACUGAGAUCCGGGGGUCGUGGGUUCAAGUCCCAUCGCUCACCCCA
With B1, the binding result is “binds”.

Source of the values: paper PMC4357726.
